Laboratory results published in patent US20100029554A1, “Composition and Methods for Treatment of Congestive Heart Failure” (Amylin Pharmaceuticals, Inc., priority 2006, published 2010).
Where no end group is shown, it is not given here. [ ]: non-standard residue; d: D form. Gly(octyl) = CCCCCCCC[C@H](N)C(=O)O

What was measured:
NH/Swiss mice = assay: Glucose lowering assay; type: in vivo, mouse; details: IP
Experimental: Female NH/Swiss mice (˜8-20 weeks of age), (Harlan, Indianapolis, Ind., USA), housed 3 mice per cage, are allowed ad libitum access to food and water until the start of the experiment. At two hours prior to treatment, access to food is restricted.
At the time of treatment, the tip of the tail is pricked with a needle to obtain 1 μl blood as a “pre-treatment” control blood sample. Immediately thereafter, each mouse is injected intraperitoneally (IP) with a test sample (1 nmol/kg or 2 nmol/kg) or 200 μl vehicle (10% DMSO saline). Additional blood samples are collected at 30, 60, 120, 180, and 240 minutes after injection.
Blood glucose is measured with a glucose oxidase biosensor (OneTouch® Ultra® (LifeScan, Inc., a Johnson & Johnson Company, Milpitas, Calif.)). At each time point, the effect of the test sample is expressed as the percent change in blood glucose relative to mice injected with vehicle only. Test samples and vehicle controls are also compared to their respective “pre-treatment” controls.
Significant test sample effects are identified by ANOVA (p<0.05). Where a significant difference existed, test means are compared to the control mean with Dunnett's post test using GraphPad Prism version 4.00 for Windows, GraphPad Software, San Diego Calif. USA, www.graphpad.com).

NIH:Swiss mice = assay: Food intake assay; type: in vivo, mouse; details: IP
Experimental: All mice (NIH:Swiss mice) are housed in a stable environment of 22 (±2)° C., 60 (±10)% humidity and a 12:12 light:dark cycle; with lights on at 0300. Mice are housed in groups of three in standard cages with ad libitum access to food (Teklad: LM 485; Madison, Wis.) and water except as noted, for at least two weeks before the experiments.
All experiments are conducted between the hours of 0700 and 0900. The mice are food deprived (food removed at 1530 hr from all animals on day prior to experiment). […] The food pellet is weighed at 30-minute, 1-hr, and 2-hr intervals to determine the amount of food eaten.
Significant test sample effects are identified by ANOVA (p<0.05). Where a significicant difference exists, test means are compared to the control mean using Dunnett's test. One-way ANOVA with Dunnett's post test is performed using GraphPad Prism version 3.01 for Windows, GraphPad Software, San Diego Calif.

[1] = system: Sprague Dawley rats with MI-induced CHF; assay: MI-induced CHF animal model; type: in vivo, rat; details: subcutaneous infusion 11 weeks
Experimental: Sprague Dawley rats undergo left coronary artery ligation to induce myocardial infarction (MI) and subsequently congestive heart failure. Some rats undergo sham surgery. Starting two weeks after coronary ligation, rats are treated with GLP-1 (2.5 or 25 pmol/kg/min), [Leu^14]-Exendin-4 amide (1.67 or 5 pmol/kg/min) or vehicle for 11 weeks via subcutaneous infusion. Cardiac function and remodeling are assessed by echocardiography. At the end of study, rats undergo treadmill testing, hemodynamic measurements and fasting (12 hour fasting) insulin and glucose concentration were measured and the Homeostasis Model Assessment (HOMA), a major index for insulin resistance, is calculated. Peak Oxygen uptake during exercise is measured by indirect calorimetry.
Transthoracic Doppler echocardiography is performed. Briefly, short-axis images are obtained at the papillary muscle level and 2D guided M-mode tracing are recorded at a speed of 100 mm/s. Left ventricular end-diastolic (LVEDD) and end-systolic dimensions (LVESD) are measured according the American Society for Echocardiography leading-edge method. Left atrial volume (LAV) and ejection fraction (LVEF) are measured and calculated from the long-axis view.
Pulsed-wave Doppler spectra of mitral inflow are obtained from apical 5-chamber view. The sample volume is placed at the tip of the mitral leaflets and adjusted to the position of maximal velocity. The peak of early (E) and late filling waves (A) are measured and E/A ratio are calculated. […] FIG. 2A-C. […]
Designations “L” and “H” indicate low and high dose of drug, respectively. […] The end point for treadmill test is determined by rat's inability to keep the pace of treadmill and land on the electric shock grid for over 6 seconds. The exercise capacity (EC) is calculated as EC (kgm)=Body weight (kg)×degree of grade×running distance. Oxygen consumption (VO2), carbon dioxide production (VCO2) are measured as described. Within 1 minute after the treadmill test, plasma lactate and glucose are measured. The treadmill test is run and analyzed by one investigator who is blinded to the study.

[2] = biological target: T1, GLP-1 receptor, endogenous in RINm5f cells (rat (RIN-m5F are called rat pancreas insulinoma cells)), P32301; assay: cell-based or functional assay
T1 chain: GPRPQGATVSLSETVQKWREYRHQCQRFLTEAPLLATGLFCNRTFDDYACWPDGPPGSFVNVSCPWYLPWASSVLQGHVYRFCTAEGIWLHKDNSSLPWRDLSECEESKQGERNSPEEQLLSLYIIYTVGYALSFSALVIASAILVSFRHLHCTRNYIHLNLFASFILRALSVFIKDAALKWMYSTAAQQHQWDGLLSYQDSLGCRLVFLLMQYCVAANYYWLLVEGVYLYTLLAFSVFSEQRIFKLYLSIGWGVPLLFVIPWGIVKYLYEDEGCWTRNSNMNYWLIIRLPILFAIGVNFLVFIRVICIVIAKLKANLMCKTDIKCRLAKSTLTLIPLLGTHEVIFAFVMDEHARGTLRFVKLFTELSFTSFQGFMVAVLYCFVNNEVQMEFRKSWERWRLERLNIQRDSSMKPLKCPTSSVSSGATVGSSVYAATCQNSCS

[3] = biological target: T1, GLP-1 receptor, endogenous in RINm5f …; assay: 125I-GLP-1 displacement, RINm5f membranes
[4] = biological target: T2, GLP-1 receptor, endogenous in RINm5f cells (rat (RIN-m5F are called rat pancreas …, UniProt P32301 22-463)); assay: cell-based or functional assay
T2 sequence (looked up): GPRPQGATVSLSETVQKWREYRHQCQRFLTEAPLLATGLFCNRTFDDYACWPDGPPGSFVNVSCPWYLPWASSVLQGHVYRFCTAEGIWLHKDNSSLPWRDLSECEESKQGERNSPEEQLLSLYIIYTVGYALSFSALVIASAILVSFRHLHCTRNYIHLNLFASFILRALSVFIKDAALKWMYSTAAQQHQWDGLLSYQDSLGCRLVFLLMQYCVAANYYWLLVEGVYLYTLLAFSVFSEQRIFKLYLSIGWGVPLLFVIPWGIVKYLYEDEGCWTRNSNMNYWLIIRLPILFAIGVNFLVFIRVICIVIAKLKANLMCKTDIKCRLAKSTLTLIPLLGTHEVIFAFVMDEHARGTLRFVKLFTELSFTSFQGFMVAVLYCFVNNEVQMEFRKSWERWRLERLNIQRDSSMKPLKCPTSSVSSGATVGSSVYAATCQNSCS

[5] = biological target: T2, GLP-1 receptor, endogenous in RINm5f …; assay: 125I-GLP-1 displacement, RINm5f membranes

Q: For `CC[C@H](C)[C@H](NC(=O)[C@H](Cc1ccccc1)NC(=O)[C@H](CCC(=O)O)NC(=O)[C@H](CCCCN)NC(=O)[C@H](C)NC(=O)[C@H](C)NC(=O)[C@H](CCC(N)=O)NC(=O)CNC(=O)[C@H](CCC(=O)O)NC(=O)[C@H](CC(C)C)NC(=O)[C@H](Cc1ccc(O)cc1)NC(=O)[C@H](CO)NC(=O)[C@H](CO)NC(=O)[C@@H](NC(=O)[C@H](CC(=O)O)NC(=O)[C@H](CO)NC(=O)[C@@H](NC(=O)[C@H](Cc1ccccc1)NC(=O)[C@@H](NC(=O)CNC(=O)[C@H](CCC(=O)O)NC(=O)[C@H](C)NC(=O)[C@@H](N)Cc1c[nH]cn1)[C@@H](C)O)[C@@H](C)O)C(C)C)C(=O)N[C@@H](C)C(=O)N[C@@H](Cc1c[nH]c2ccccc12)C(=O)N[C@@H](CC(C)C)C(=O)N[C@H](C(=O)N[C@@H](CCCCN)C(=O)NCC(=O)N[C@@H](CCCNC(=N)N)C(N)=O)C(C)C` [Cmpd 3521, reference compound], which “GLU LOWERING AUC240 @80 nmol/kg” value (NH/Swiss mice; 80 nmol/kg) is on record?
A: −9% @

Q: What about the “FOOD INTAKE at 60 min” value (NIH:Swiss mice; dose 1 mg/kg) of the same molecule?
A: −27%

Q: And the “baseline plasma lactate level” value [1]?
A: attenuated baseline plasma lactate level

Q: And the “left ventricle chamber size (LVEDD, LVESD)” value [1]?
A: attenuates enlargement of left ventricle chamber size

Q: And the “insulin resistance / insulin sensitivity (fasting insulin, glucose, HOMA)” value ([1]; 12 hour fasting)?
A: attenuates insulin resistance and improves insulin sensitivity

Q: `CC[C@H](C)[C@H](NC(=O)[C@H](CC(C)C)NC(=O)[C@H](Cc1c[nH]c2ccccc12)NC(=O)[C@H](CCC(=O)O)NC(=O)[C@@H](NC(=O)[C@H](Cc1ccccc1)NC(=O)[C@H](CC(C)C)NC(=O)[C@H](CCCNC(=N)N)NC(=O)[C@@H](NC(=O)[C@H](C)NC(=O)[C@H](CCCCN)NC(=O)[C@H](CCC(=O)O)NC(=O)[C@H](CCC(=O)O)NC(=O)[C@H](CC(C)C)NC(=O)[C@H](CCC(N)=O)NC(=O)[C@H](CCCCN)NC(=O)[C@H](CO)NC(=O)[C@H](CC(C)C)NC(=O)[C@H](CC(=O)O)NC(=O)[C@H](CO)NC(=O)[C@@H](NC(=O)[C@H](Cc1ccccc1)NC(=O)[C@@H](NC(=O)CNC(=O)[C@H](CCC(=O)O)NC(=O)CNC(=O)[C@@H](N)Cc1c[nH]cn1)[C@@H](C)O)[C@@H](C)O)C(C)C)[C@@H](C)CC)C(=O)N[C@@H](CCC(N)=O)C(=O)NCC(=O)NCC(=O)N1CCC[C@H]1C(=O)N[C@@H](CO)C(=O)N[C@@H](CCCCN)C(=O)N[C@@H](CCC(=O)O)C(=O)N[C@H](C(=O)N[C@H](C(=O)N[C@@H](CO)C(=O)O)[C@@H](C)CC)[C@@H](C)CC` [Cmpd 5103] was tested. Which “GLU LOWERING AUC240 @2 nmol/kg” value (NH/Swiss mice; 2 nmol/kg, change in blood glucose relative to vehicle) did it give?
A: −17%

Q: What about the “FOOD INTAKE at 60 min” value (NIH:Swiss mice; dose 10 nmol/kg) of the same molecule?
A: −42%

Q: For HAEGTFTSDVSSYLEGQAAKEFIAWLVKGRGGG (not fully specified; modifications not checked) [Cmpd 4844, GLP-1-(7-37)-GG(S)-2,6-diamino-1-(thiazolidin-3-y1)hexan-1-one amide], which cAMP, CYCLASE GLP/GIP/CT (RIN) EC50 [2] is on record?
A: 0.13 nM

Q: How did the cAMP, CYCLASE GLP/GIP/CT (RIN) EC50 [2] turn out when HAEGTFTSDVSSYLEGQAAKEFIAWLVKGRGGG (not fully specified; modifications not checked) [Cmpd 4845, GLP-1-(7-37)-GG-(S)-2,6-diamino-1-(thiazolidin-2-cyano-3-y1)hexan-1-one amide] was run?
A: 0.4 nM

Q: How did the cAMP, CYCLASE GLP/GIP/CT (RIN) EC50 [2] turn out when HAEGTFTSDVSSYLEGQAAKEFIAWLVKGRPSGGGIPI (modifications not checked) [Cmpd 4888] was run?
A: 0.17 nM

Q: And the IC50 [3]?
A: 0.13 nM

Q: Which results are given for HAEGTFTSDVSSYLEGQAAKEFIAWLVKGRGGGIPI (modifications not checked) [Cmpd 4957]?
A: cAMP, CYCLASE GLP/GIP/CT (RIN) EC50 [2]: 0.51 nM; IC50 [3]: 0.1 nM

Q: HGEGTFTSDLSKQLEEEAVRLFIEWLKNPGGKEIIS (tested as C-terminal acid (-OH)) [Cmpd 5296] was tested. Which “cAMP, CYCLASE GLP/GIP/CT (RIN) EC50” value [4] did it give?
A: 0.145 nM

Q: And the IC50 [5]?
A: 4 nM

B1: Cmpd 5269 (peptide)
peptide: HGEGTFTSDLSKQLEEEAVRLFIEFLKNGKPKK[Gly(octyl)]RYS-OH
modifications: N-terminus assumed
SMILES: CCCCCCCC[C@H](NC(=O)[C@H](CCCCN)NC(=O)[C@H](CCCCN)NC(=O)[C@@H]1CCCN1C(=O)[C@H](CCCCN)NC(=O)CNC(=O)[C@H](CC(N)=O)NC(=O)[C@H](CCCCN)NC(=O)[C@H](CC(C)C)NC(=O)[C@H](Cc1ccccc1)NC(=O)[C@H](CCC(=O)O)NC(=O)[C@@H](NC(=O)[C@H](Cc1ccccc1)NC(=O)[C@H](CC(C)C)NC(=O)[C@H](CCCNC(=N)N)NC(=O)[C@@H](NC(=O)[C@H](C)NC(=O)[C@H](CCC(=O)O)NC(=O)[C@H](CCC(=O)O)NC(=O)[C@H](CCC(=O)O)NC(=O)[C@H](CC(C)C)NC(=O)[C@H](CCC(N)=O)NC(=O)[C@H](CCCCN)NC(=O)[C@H](CO)NC(=O)[C@H](CC(C)C)NC(=O)[C@H](CC(=O)O)NC(=O)[C@H](CO)NC(=O)[C@@H](NC(=O)[C@H](Cc1ccccc1)NC(=O)[C@@H](NC(=O)CNC(=O)[C@H](CCC(=O)O)NC(=O)CNC(=O)[C@@H](N)Cc1c[nH]cn1)[C@@H](C)O)[C@@H](C)O)C(C)C)[C@@H](C)CC)C(=O)N[C@@H](CCCNC(=N)N)C(=O)N[C@@H](Cc1ccc(O)cc1)C(=O)N[C@@H](CO)C(=O)O
notes: tested as C-terminal acid (-OH)
Q: Which results are given for B1?
A: cAMP, CYCLASE GLP/GIP/CT (RIN) EC50 [4]: 1.31 nM; IC50 [5]: 0.088 nM

Q: How did the cAMP, CYCLASE GLP/GIP/CT (RIN) EC50 [2] turn out when HAEGTFTSDVSSYLEGQAAKEFIAWLVKGRGGGGIPI (modifications not checked) [Cmpd 4887] was run?
A: 0.22 nM

Q: And the IC50 [3]?
A: 0.17 nM
